B5: Oxysterol liver X receptor alpha (LXR-alpha), amino acids 95-277, Gal4 DNA-binding-domain fusion (bait) (receptor, UniProt P04386 1-147, looked up)
chain: MKLLSSIEQACDICRLKKLKCSKEKPKCAKCLKNNWECRYSPKTKRSPLTRAHLTEVESRLERLEQLFLLIFPREDLDMILKMDSLQDIKALLTGLFVQDNVNKDAVTDRLASVETDMPLTLRQHRISATSSSEESSNKGQRQLTVSNELCSVCGDKASGFHYNVLSCEGCKGFFRRSVIKGAHYICHSGGHCPMDTYMRRKCQECRLRKCRQAGMREECVLSEEQIRLKKLKRQEEEQAHATSLPPRASSPPQILPQLSPEQLGMIEKLVAAQQQCNRRSFSDRLRVTPWPMAPDPHSREARQQRFAHFTELAIVSVQEIVDFAKQLPG
notes: range 1-147;range 95-277; Bait made by PCR from brain cDNA and expressed in yeast from vector pGBTQ as a C-terminal fusion to Gal4 DBD

What was measured:
[1] = biological target: T1, Oxysterol liver X receptor alpha (LXR-alpha), amino acids 156-448, Gal4 DNA-binding-domain fusion (bait) (yeast (Saccharomyces cerevisiae), UniProt P04386 1-147; Q13133 156-447); assay: yeast two-hybrid; prey clone identified for the bait of the same row (Ex. 12)
T1 construct: range 1-147;range 156-448; Bait expressed in yeast from pGBTQ as a C-terminal fusion to Gal4 DBD
Description: (§1) A total human brain (person) cDNA library cloned into the yeast expression vector pACT2 was purchased from Clontech (human brain […] cDNA, cat. # HL4004AH), transformed into the yeast strain J692 (genotype of this strain: Mat a, ade2, his3, leu2, trp1, URA3::GAL1-1acZ LYS2::GAL1-HIS3 ga14del ga180del cyhR2), and selected for the ability to drive leucine synthesis. In these yeast cells, each cDNA is expressed as a fusion protein with the transcription activation domain of the transcription factor Ga14 (amino acids 768 to 881) and a 9 amino acid hemagglutinin epitope tag. J693 cells (Mat α type) expressing the bait were then mated with J692 cells ([…]) expressing proteins from the brain library. The resulting diploid yeast cells expressing proteins interacting with the bait protein were selected for the ability to synthesize tryptophan, leucine, histidine, and β-galactosidase. DNA was prepared from each clone, transformed by electroporation into E. coli strain KC8 (Clontech KC8 electrocompetent cells, cat. # C2023-1), and the cells were selected on ampicillin-containing plates in the absence of either tryptophane (selection for the bait plasmid) or leucine (selection for the brain library plasmid). DNA for both plasmids was prepared and sequenced by di-deoxynucleotide chain termination method. […]

[2] = biological target: T2, zyxin, amino acids 323-572, Gal4 activation-domain fusion (prey clone) (yeast (Saccharomyces cerevisiae); human, UniProt P04386 768-881; Q15942 323-572); assay: yeast two-hybrid; prey clone identified for the bait of the same row (Ex. 4)
T2 construct: range 768-881;range 323-572; Clone from the human brain cDNA library in pACT2
T2 sequence (looked up): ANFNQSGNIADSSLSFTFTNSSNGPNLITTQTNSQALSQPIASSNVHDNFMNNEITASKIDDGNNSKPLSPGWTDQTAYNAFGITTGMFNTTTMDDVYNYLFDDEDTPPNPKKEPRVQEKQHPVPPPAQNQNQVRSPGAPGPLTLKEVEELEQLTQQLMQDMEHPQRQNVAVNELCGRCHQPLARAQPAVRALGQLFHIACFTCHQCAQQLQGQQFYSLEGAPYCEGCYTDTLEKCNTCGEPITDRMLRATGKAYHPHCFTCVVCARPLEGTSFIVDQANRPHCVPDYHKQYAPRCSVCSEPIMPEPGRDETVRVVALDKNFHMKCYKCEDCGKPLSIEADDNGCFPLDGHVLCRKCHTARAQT
Description: as §1

[3] = biological target: B5; assay: yeast two-hybrid; prey clone identified for the bait of the same row (Ex. 6)
Description: as §1

[4] = biological target: T3, Oxysterol liver X receptor alpha (LXR-alpha), amino acids 257-448, Gal4 DNA-binding-domain fusion (bait) (yeast (Saccharomyces cerevisiae), UniProt P04386 1-147; Q13133 257-447); assay: yeast two-hybrid; prey clone identified for the bait of the same row (Ex. 8)
T3 construct: range 1-147;range 257-448; Bait expressed in yeast from pGBTQ as a C-terminal fusion to Gal4 DBD
Description: as §1

[5] = biological target: T1, Oxysterol liver X receptor alpha …; assay: yeast two-hybrid; prey clone identified for the bait of the same row (Ex. 9)
Description: as §1

[6] = biological target: T4, PSMD11, amino acids 87-422, Gal4 activation-domain fusion (prey clone) (yeast (Saccharomyces cerevisiae); human, UniProt P04386 768-881; O00231 87-422); assay: yeast two-hybrid; prey clone identified for the bait of the same row (Ex. 10)
T4 construct: range 768-881;range 87-422; Clone from the human brain cDNA library in pACT2; also called proteasome subunit PSMD11
Description: as §1

B1: CIR, amino acids 226-450, Gal4 activation-domain fusion (prey clone) (other, yeast (Saccharomyces cerevisiae);human, UniProt P04386 768-881, looked up, not shown: small tags and cut ends)
chain: ANFNQSGNIADSSLSFTFTNSSNGPNLITTQTNSQALSQPIASSNVHDNFMNNEITASKIDDGNNSKPLSPGWTDQTAYNAFGITTGMFNTTTMDDVYNYLFDDEDTPPNPKKERKLDRLEKKKKKKDRKKKKFQKSRSKHKKHKSSSSSSSSSSSSSSTETSESSSESESNNKEKKIQRKKRKKNKCSGHNNSDSEEKDKSKKRKLHEELSSSHHNREKAKEKPRFLKHESSREDSKWSHSDSDKKSRTHKHSPEKRGSERKEGSSRSHGREERSRRSRSRSPGSYKQRETRKRAQRNPGEEQSRRNDSRSHGTDLYRGEKMYREHPGGTHTKVTQRE
notes: range 768-881;range 226-450; Clone from the human brain cDNA library in pACT2; also called transcription factor CIR
Does B1 bind [1]?
Result: binds

B2: Oxysterol liver X receptor alpha (LXR-alpha), amino acids 95-156, Gal4 DNA-binding-domain fusion (bait) (receptor, UniProt P04386 1-147, looked up)
chain: MKLLSSIEQACDICRLKKLKCSKEKPKCAKCLKNNWECRYSPKTKRSPLTRAHLTEVESRLERLEQLFLLIFPREDLDMILKMDSLQDIKALLTGLFVQDNVNKDAVTDRLASVETDMPLTLRQHRISATSSSEESSNKGQRQLTVSNELCSVCGDKASGFHYNVLSCEGCKGFFRRSVIKGAHYICHSGGHCPMDTYMRRKCQECRLR
notes: range 1-147;range 95-156; Bait expressed in yeast from pGBTQ as a C-terminal fusion to Gal4 DBD
Does B2 bind [2]?
Result: binds

B3: Homer-3, amino acids 182-354, Gal4 activation-domain fusion (prey clone) (other, yeast (Saccharomyces cerevisiae);human, UniProt P04386 768-881, looked up, not shown: small tags and cut ends)
chain: ANFNQSGNIADSSLSFTFTNSSNGPNLITTQTNSQALSQPIASSNVHDNFMNNEITASKIDDGNNSKPLSPGWTDQTAYNAFGITTGMFNTTTMDDVYNYLFDDEDTPPNPKKEEVQWEAEFFALQDSNNKLAGALREANAAAAQWRQQLEAQRAEAERLRQRVAELEAQAASEVTPTGEKEGLGQGQSLEQLEALVQTKDQEIQTLKSQTGGPREALEAAEREETQQKVQDLETRNAELEHQLRAMERSLEEARAERERARAEVGRAAQLLDVSLFELSELREGLA
notes: range 768-881;range 182-354; Clone from the human brain cDNA library in pACT2; The printed GenBank number has one digit too many
Does B3 bind [3]?
Result: binds

B4: EIF3S1, amino acids 94-254, Gal4 activation-domain fusion (prey clone) (other, yeast (Saccharomyces cerevisiae);human, UniProt P04386 768-881, looked up, not shown: small tags and cut ends)
chain: ANFNQSGNIADSSLSFTFTNSSNGPNLITTQTNSQALSQPIASSNVHDNFMNNEITASKIDDGNNSKPLSPGWTDQTAYNAFGITTGMFNTTTMDDVYNYLFDDEDTPPNPKKEEIKKRLEEPEEPKVLTPEEQLADKLRLKKLQEESDLELAKETFGVNNAVYGIDAMNPSSRDDFTEFGKLLKDKITQYEKSLYYASFLEVLVRDVCISLEIDDLKKITNSLTVLCSEKQKQEKQSKAKKKKKGVVPGGGLKATMKDDLADYGGYDGGYVQDY
notes: range 768-881;range 94-254; Clone from the human brain cDNA library in pACT2; also called translation initiation factor EIF3S1
Does B4 bind [4]?
Result: binds

Does B4 bind [5]?
Result: binds

Does B5 bind [6]?
Result: binds

From patent US20030032592A1 (published 2003)
